For one molecule, Blocking [%] and Normalized to Zika Blocking [%] results are on record in patent US20200048312A1.

The target of experiment [1] is antibodies of human serum sample 16CDV61278 (Zika IgG positive) (human). Briefly: blocking of wing DAGS ECL signal.
Experiment [2] deals with antibodies of human serum sample 16CDV61275 (Zika IgG) (human). Briefly: blocking of wing DAGS ECL signal.
Experiment [3] addresses antibodies of human serum sample 16CDV61197 (Zika IgG positive) (human). Nature of the experiment: blocking of wing DAGS ECL signal.
The target in experiment [4] is antibodies of human serum sample 16CDV61278 (Zika IgG positive) (human). Nature of the experiment: blocking of ß-ladder DAGS ECL signal.
The target of experiment [5] is antibodies of human serum sample 16CDV61275 (Zika IgG) (human). Nature of the experiment: blocking of ß-ladder DAGS ECL signal.
Experiment [6] addresses antibodies of human serum sample 16CDV61197 (Zika IgG positive) (human). Briefly: blocking of ß-ladder DAGS ECL signal.

B1: Dengue virus type 4 NS1 full length (protein)
chain: DTGCAVSWSGKELKCGSGIFVIDNVHTWTEQYKFQPESPARLASAILNAHEDGVCGIRSTTRLENIMWKQITNELNYVLWEGGHDLTVVAGDVKGVLSKGKRALAPPVNDLKYSWKTWGKAKIFTPEAKNSTFLIDGPDTSECPNERRAWNFLEVEDYGFGMFTTNIWMKFREGSSEVCDHRLMSAAIKDQKAVHADMGYWIESSKNQTWQIEKASLIEVKTCLWPKTHTLWSNGVLESQMLIPKAYAGPFSQHNYRQGYATQTVGPWHLGKLEIDFGECPGTTVTIQEDCDHRGPSLRTTTASGKLVTQWCCRSCTMPPLRFLGEDGCWYGMEIRPLSEKEENMVKSQVSA
As for B1, the Blocking [%] stood at 4.5% in experiment [1]; 2.48% in experiment [2]; 0.891% in experiment [3]; 2.6% in experiment [4]; 25.1% in experiment [5]; 31.6% in experiment [6]. Also, the Normalized to Zika Blocking [%] came to 4.9% in experiment [1]; 3.3% in experiment [2]; 1.2% in experiment [3]; 3.7% in experiment [4]; 27.3% in experiment [5]; 50.3% in experiment [6].
